This is an account of results in patent US20020164767.

The test system of this data set is PFEK-protease C-E-6XHIS zymogen.
Sequence of PFEK-protease C-E-6XHIS zymogen (chain, as listed by the source): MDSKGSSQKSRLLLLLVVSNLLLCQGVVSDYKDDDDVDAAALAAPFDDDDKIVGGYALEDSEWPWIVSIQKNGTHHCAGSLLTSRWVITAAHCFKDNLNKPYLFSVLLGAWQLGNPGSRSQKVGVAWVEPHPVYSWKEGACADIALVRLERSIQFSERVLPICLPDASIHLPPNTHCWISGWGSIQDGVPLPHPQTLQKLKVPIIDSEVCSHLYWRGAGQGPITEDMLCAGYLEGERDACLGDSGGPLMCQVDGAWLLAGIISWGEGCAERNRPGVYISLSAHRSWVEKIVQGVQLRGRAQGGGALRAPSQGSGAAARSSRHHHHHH

As for enterokinase, the “cleavage of the zymogen (SDS-PAGE and anti-FLAG Western blot)” value is “This demonstrates the quantitative cleavage of the expressed and purified zymogen to generate the processed and activated protease”.
